Reference: US20210032365A1 (Chugai, published 2021)
Changes are numbered by the printed parent chain. Values belong to the binder of their own block, whether it stands above or below them.

Assays:
[1] = target: T1, human C1s (human, UniProt P09871 16-688); assay: SPR (Biacore T200, 37C), Ab captured on protein A/G; pH 5.8, 3 uM Ca
T1 construct: Analyte in the Biacore assays; also called hC1s; serum-derived human C1s (CompTech)
T1 sequence: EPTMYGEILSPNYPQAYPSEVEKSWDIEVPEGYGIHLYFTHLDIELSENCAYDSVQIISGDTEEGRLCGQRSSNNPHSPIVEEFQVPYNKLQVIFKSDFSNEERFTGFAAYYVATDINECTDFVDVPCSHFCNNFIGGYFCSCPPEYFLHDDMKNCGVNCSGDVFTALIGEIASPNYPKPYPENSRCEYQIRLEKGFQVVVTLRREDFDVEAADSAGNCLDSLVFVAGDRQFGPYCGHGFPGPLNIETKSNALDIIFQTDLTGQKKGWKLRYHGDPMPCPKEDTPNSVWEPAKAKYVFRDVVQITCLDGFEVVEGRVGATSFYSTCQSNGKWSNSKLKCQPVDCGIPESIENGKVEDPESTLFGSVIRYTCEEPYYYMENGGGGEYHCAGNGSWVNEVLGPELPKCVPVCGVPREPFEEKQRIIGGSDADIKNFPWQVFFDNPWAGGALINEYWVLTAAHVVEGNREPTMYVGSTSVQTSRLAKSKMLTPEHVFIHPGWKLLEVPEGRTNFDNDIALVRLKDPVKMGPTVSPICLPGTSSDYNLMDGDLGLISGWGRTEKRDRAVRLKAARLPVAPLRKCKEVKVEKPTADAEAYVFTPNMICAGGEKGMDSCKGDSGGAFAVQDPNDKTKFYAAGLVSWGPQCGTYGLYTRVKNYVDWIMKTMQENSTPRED
Procedure: (§1) Each antibody was captured onto the sensor surface by protein A/G. Antibody capture levels were aimed at 200 resonance unit (RU). Serum-derived human C1s (CompTech) or recombinant C1s prepared in EXAMPLE 1 was injected at 50 nM, followed by dissociation. The sensor surface was regenerated in each cycle with 10 mM Glycine-HCl, pH 1.5. […] The ratio of KD 5.8+ to KD 7.4+(“KD 5+/7+”) and that of KD 5.8− to KD 7.4+(“KD 5−/7+”) were calculated. When the KD 5+/7+ or KD 5−/7+ of a variant is larger than that of the parent antibody IPN009VH2-SG4GK/IPN009VK3-SK1, that variant is considered to be “pH”- or “pH and Ca”-dependent, respectively. When binding response in 5(+) buffer and/or in 5(−) buffer of a variant is much lower than that of IPN09VH2/IPN009VK3, that variant is also considered as “pH”- and/or “pH and Ca”-dependent. Therefore, such mutations are effective to generate “pH”- and/or “pH and Ca”-dependent antibody. To further enhance “pH” and/or “pH and Ca” dependency, a combination of histidine mutations was conducted. Antibodies with combinations of histidine mutations were evaluated using Biacore by the method described above.
(§2) C1_1IPN92H0033 (SEQ ID NO: 17)-SG4GK/IPN93L0024 (SEQ ID NO: 18)-SK1 (IPN92H0033/IPN93L0024) was selected for further optimization. Histidine, Lysine, Arginine, aspartic acid, glutamic acid, and glutamine scanning was conducted for CDRs and certain positions of FRs of IPN92H0033/IPN93L0024. Variants with a mutation were generated and purified, and evaluated using Biacore by the method mentioned above. All variants were evaluated using Biacore as mentioned above. Mutations that improved “pH” and/or “pH and Ca” dependency were selected for the combination.

[2] = target: T1, human C1s; assay: SPR (Biacore T200, 37C), Ab captured on protein A/G; pH 5.8, 1.2 mM Ca
Procedure: as §1, §2

[3] = target: T1, human C1s; assay: SPR; KD at pH 5.8 (1.2 mM Ca) over KD at pH 7.4 (1.2 mM Ca)
Procedure: as §1, §2

[4] = target: T1, human C1s; assay: SPR; KD at pH 5.8 (3 uM Ca) over KD at pH 7.4 (1.2 mM Ca)
Procedure: as §1, §2

[5] = target: T2, human C1s (human, UniProt P09871 16-688); assay: SPR, Ab captured; pH 5.8, 1.2 mM Ca
T2 construct: also called hC1s; serum-derived human C1s (CompTech)
T2 sequence: T1 sequence
Procedure: (§3) All variants were transiently expressed and purified by the method described above. The binding affinity of each histidine-substituted variant at pH 7.4 and pH 5.8 was determined at 37 degrees C. using Biacore T200 instrument (GE Healthcare). Recombinant Protein A/G (Pierce) was immobilized onto all flow cells of a CM4 sensor chip using an amine coupling kit (GE Healthcare). Antibodies and analytes were prepared in 7(+) buffer (20 mM ACES, 150 mM NaCl, 1.2 mM CaCl2, 0.05% Tween 20, 0.005% NaN3, pH 7.4), 5(+) buffer (20 mM ACES, 150 mM NaCl, 1.2 mM CaCl2, 0.05% Tween 20, 0.005% NaN3, pH 5.8), or 5(−) buffer (20 mM ACES, 150 mM NaCl, 3 micro M CaCl2, 0.05% Tween 20, 0.005% NaN3, pH 5.8). Each antibody was captured onto the sensor surface by protein A/G. Antibody capture levels were aimed at 200 resonance unit (RU). Serum-derived human C1s (CompTech) or recombinant C1s prepared in EXAMPLE 1 was injected at 50 nM, followed by dissociation. The sensor surface was regenerated in each cycle with 10 mM Glycine-HCl, pH 1.5. […] The ratio of KD 5.8+ to KD 7.4+(“KD 5+/7+”) and that of KD 5.8− to KD 7.4+(“KD 5−/7+”) were calculated. When the KD 5+/7+ or KD 5−/7+ of a variant is larger than that of the parent antibody IPN009VH2-SG4GK/IPN009VK3-SK1, that variant is considered to be “pH”- or “pH and Ca”-dependent, respectively. When binding response in 5(+) buffer and/or in 5(−) buffer of a variant is much lower than that of IPN09VH2/IPN009VK3, that variant is also considered as “pH”- and/or “pH and Ca”-dependent. Therefore, such mutations are effective to generate “pH”- and/or “pH and Ca”-dependent antibody. To further enhance “pH” and/or “pH and Ca” dependency, a combination of histidine mutations was conducted. Antibodies with combinations of histidine mutations were evaluated using Biacore by the method described above.

[6] = target: T2, human C1s; assay: SPR; KD pH 5.8 3 uM Ca / KD pH 7.4 1.2 mM Ca
Procedure: as §3

[7] = target: T2, human C1s; assay: SPR, Ab captured; pH 7.4, 1.2 mM Ca
Procedure: as §3

[8] = target: T2, human C1s; assay: SPR, Ab captured; pH 7.4, 1.2 mM Ca; remark: listed apart in the source
Procedure: as §1, §2

[9] = target: T2, human C1s; assay: SPR; KD pH 5.8 1.2 mM Ca / KD pH 7.4 1.2 mM Ca
Procedure: as §3

Kd [1]: 12.1 nM | koff [1]: 0.00736 s⁻¹ | kon [1]: 606000 M⁻¹ s⁻¹ | Kd [2]: 16.1 nM | koff [2]: 0.00533 s⁻¹ | kon [2]: 332000 M⁻¹ s⁻¹ | KD 5(+)/7(+) [3]: 16.3 | KD 5(-)/7(+) [4]: 12.3
B1: C1_IPN92H0261-SG4GK/IPN93L0091-SK1 (antibody, human IgG4 S228P, kappa, name in Kabat numbering, V domains shown)
VH: EVMLVESGGGLVKPGGSLRLSCAASGFTFSNYAMSWVRQAPGKGLEWVATISSGGSHTYELDSVKGRFTISRDNSKDTLYLQMNSLRAEDTALYYCARLFTKHAMDYWGQGTLVTVSS
VL: QIVLTQSPATLSLSPGERATLSCTASSSVSSSRLHWYQQKPGKAPKLWIYSTSNLASGVPSRFSGSGSGTDYTLTISSLQPEDFATYYCHQYYRLHPITFGQGTKLEIKR
notes: Substitutions from IPN009VH2 / IPN009VK3, Kabat numbering; also called IPN92H0261/IPN93L0091

Kd [1]: 2.21 nM | koff [1]: 0.00148 s⁻¹ | kon [1]: 670000 M⁻¹ s⁻¹ | Kd [2]: 16.9 nM | koff [2]: 0.00755 s⁻¹ | kon [2]: 445000 M⁻¹ s⁻¹ | KD 5(+)/7(+) [3]: 8.6 | KD 5(-)/7(+) [4]: 1.13
B2: C1_IPN92H0282-SG4GK/IPN93L0091-SK1 (antibody, human IgG4 S228P, kappa, name in Kabat numbering, V domains shown)
VH: B1 VH with K65D, G66E
VL: B1 VL
notes: Substitutions from IPN009VH2 / IPN009VK3, Kabat numbering; also called IPN92H0282/IPN93L0091

Kd [1]: 6.79 nM | koff [1]: 0.00533 s⁻¹ | kon [1]: 784000 M⁻¹ s⁻¹ | Kd [2]: 21 nM | koff [2]: 0.0198 s⁻¹ | kon [2]: 945000 M⁻¹ s⁻¹ | KD 5(+)/7(+) [3]: 11.6 | KD 5(-)/7(+) [4]: 3.75
B3: C1_IPN92H0288-SG4GK/IPN93L0212-SK1 (antibody, human IgG4 S228P, kappa, name in Kabat numbering, V domains shown)
VH: B1 VH with K65D
VL: B1 VL with S28E, S31E
notes: VL substitutions from IPN009VK3, Kabat numbering; also called IPN92H0288/IPN93L0212

Kd [1]: 5.17 nM | koff [1]: 0.00611 s⁻¹ | kon [1]: 1.18e+06 M⁻¹ s⁻¹ | Kd [2]: 20 nM | koff [2]: 0.00684 s⁻¹ | kon [2]: 342000 M⁻¹ s⁻¹ | KD 5(+)/7(+) [3]: 29.2 | KD 5(-)/7(+) [4]: 7.54
B4: C1_IPN92H0279-SG4GK/IPN93L0091-SK1 (antibody, human IgG4 S228P, kappa, name in Kabat numbering, V domains shown)
VH: B1 VH with G66E
VL: B1 VL
notes: Substitutions from IPN009VH2 / IPN009VK3, Kabat numbering; also called IPN92H0279/IPN93L0091

Kd [1]: 8.55 nM | koff [1]: 0.00327 s⁻¹ | kon [1]: 382000 M⁻¹ s⁻¹ | Kd [2]: 18 nM | koff [2]: 0.00998 s⁻¹ | kon [2]: 553000 M⁻¹ s⁻¹ | KD 5(+)/7(+) [3]: 10.9 | KD 5(-)/7(+) [4]: 5.18
B5: C1_IPN92H0282-SG4GK/IPN93L0024-SK1 (antibody, human IgG4 S228P, kappa, name in Kabat numbering, V domains shown)
VH: B1 VH with K65D, G66E
VL: B1 VL with R33Y
notes: Substitutions from IPN009VH2, Kabat numbering; also called IPN92H0282/IPN93L0024

Kd [1]: 4.65 nM | koff [1]: 0.00477 s⁻¹ | kon [1]: 1.03e+06 M⁻¹ s⁻¹ | Kd [2]: 6.57 nM | koff [2]: 0.00346 s⁻¹ | kon [2]: 527000 M⁻¹ s⁻¹ | KD 5(+)/7(+) [3]: 4.2 | KD 5(-)/7(+) [4]: 2.94
B6: C1_IPN92H0286-SG4GK/IPN93L0205-SK1 (antibody, human IgG4 S228P, kappa, name in Kabat numbering)
heavy: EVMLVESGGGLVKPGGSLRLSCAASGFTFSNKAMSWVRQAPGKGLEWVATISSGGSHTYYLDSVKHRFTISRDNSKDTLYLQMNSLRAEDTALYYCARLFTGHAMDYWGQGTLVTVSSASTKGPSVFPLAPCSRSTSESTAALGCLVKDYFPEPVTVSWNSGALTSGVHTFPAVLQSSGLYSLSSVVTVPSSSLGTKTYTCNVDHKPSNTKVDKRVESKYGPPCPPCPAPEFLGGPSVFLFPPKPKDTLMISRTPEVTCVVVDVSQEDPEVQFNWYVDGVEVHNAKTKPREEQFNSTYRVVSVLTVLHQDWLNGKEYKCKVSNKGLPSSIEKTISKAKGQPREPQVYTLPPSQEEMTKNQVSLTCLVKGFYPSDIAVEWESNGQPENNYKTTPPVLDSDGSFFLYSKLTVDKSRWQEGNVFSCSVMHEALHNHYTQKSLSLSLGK
light: QIVLTQSPATLSLSPGERATLSCTASSSVSSSRLHWYQQKPGKAPKLWIYSTSNLASGVPSRFSGSGSGTDYTLTISSLQPEDFATYYCHQYHRHPPITFGQGTKLEIKRTVAAPSVFIFPPSDEQLKSGTASVVCLLNNFYPREAKVQWKVDNALQSGNSQESVTEQDSKDSTYSLSSTLTLSKADYEKHKVYACEVTHQGLSSPVTKSFNRGEC
notes: Substitutions from IPN009VH2 / IPN009VK3, Kabat numbering; also called IPN92H0286/IPN93L0205

Kd [1]: 3.88 nM | koff [1]: 0.00227 s⁻¹ | kon [1]: 585000 M⁻¹ s⁻¹ | Kd [2]: 11.3 nM | koff [2]: 0.00707 s⁻¹ | kon [2]: 625000 M⁻¹ s⁻¹ | KD 5(+)/7(+) [3]: 2.4 | KD 5(-)/7(+) [4]: 0.82
B7: C1_IPN92H0281-SG4GK/IPN93L0091-SK1 (antibody, human IgG4 S228P, kappa, name in Kabat numbering, V domains shown)
VH: B1 VH with H57K, K65D, G66E
VL: B1 VL
notes: Substitutions from IPN009VH2 / IPN009VK3, Kabat numbering; also called IPN92H0281/IPN93L0091

Kd [1]: 4.98 nM | koff [1]: 0.003 s⁻¹ | kon [1]: 602000 M⁻¹ s⁻¹ | Kd [2]: 23.6 nM | koff [2]: 0.024 s⁻¹ | kon [2]: 1.02e+06 M⁻¹ s⁻¹ | KD 5(+)/7(+) [3]: 9.4 | KD 5(-)/7(+) [4]: 1.98
B8: C1_IPN92H0281-SG4GK/IPN93L0024-SK1 (antibody, human IgG4 S228P, kappa, name in Kabat numbering)
heavy: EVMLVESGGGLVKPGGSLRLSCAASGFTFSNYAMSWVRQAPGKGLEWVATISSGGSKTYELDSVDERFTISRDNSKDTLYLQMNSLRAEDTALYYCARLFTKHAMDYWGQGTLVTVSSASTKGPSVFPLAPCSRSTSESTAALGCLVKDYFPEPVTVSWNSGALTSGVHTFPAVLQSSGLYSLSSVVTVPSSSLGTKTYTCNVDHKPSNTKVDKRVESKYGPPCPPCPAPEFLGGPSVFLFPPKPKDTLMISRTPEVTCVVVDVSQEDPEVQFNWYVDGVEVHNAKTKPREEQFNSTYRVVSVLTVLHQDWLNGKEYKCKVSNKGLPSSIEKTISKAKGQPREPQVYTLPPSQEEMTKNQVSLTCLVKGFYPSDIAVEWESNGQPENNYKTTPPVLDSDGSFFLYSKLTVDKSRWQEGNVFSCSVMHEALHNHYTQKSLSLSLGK
light: B6 light with R33Y, H93Y, H95L, P96H
notes: Substitutions from IPN009VH2, Kabat numbering; also called IPN92H0281/IPN93L0024

koff [5]: 0.0045 s⁻¹ | kon [5]: 519000 M⁻¹ s⁻¹ | KD 5(-)/7(+) [6]: 1.8 | koff [7]: 0.000776 s⁻¹ | kon [7]: 268000 M⁻¹ s⁻¹ | koff [8]: 0.000776 s⁻¹ | kon [8]: 268000 M⁻¹ s⁻¹ | KD 5(+)/7(+) [9]: 3
B9: C1_IPN92H0033-SG4GK/IPN93L0024-SK1 (antibody, human IgG4 S228P, kappa)
heavy: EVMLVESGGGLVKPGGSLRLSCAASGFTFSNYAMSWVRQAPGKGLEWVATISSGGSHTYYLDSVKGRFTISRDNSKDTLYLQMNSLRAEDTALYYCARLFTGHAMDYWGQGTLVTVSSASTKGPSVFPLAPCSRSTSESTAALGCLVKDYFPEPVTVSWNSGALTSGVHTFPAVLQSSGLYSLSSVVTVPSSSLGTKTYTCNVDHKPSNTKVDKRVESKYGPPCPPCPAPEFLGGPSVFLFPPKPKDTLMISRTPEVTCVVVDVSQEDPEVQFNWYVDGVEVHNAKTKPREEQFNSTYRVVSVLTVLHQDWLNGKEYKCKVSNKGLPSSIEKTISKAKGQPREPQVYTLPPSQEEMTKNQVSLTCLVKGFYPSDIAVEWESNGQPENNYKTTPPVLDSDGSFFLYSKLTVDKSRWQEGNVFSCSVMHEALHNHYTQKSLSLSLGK
light: B6 light with R33Y, H93Y, H95L, P96H
notes: also called IPN92H0033/IPN93L0024
